The Human Domainome abundance scans (Beltran et al. 2025)
± gives the uncertainty stated by the source.

B1: Chromodomain-helicase-DNA-binding protein 3, residues 374 to 426; numbered along this chain, Q12873 (parent)
chain: YETDHQDYCEVCQQGGEIILCDTCPRAYHLVCLDPELDRAPEGKWSCPHCEKE
B2: Ubiquitin-protein ligase residues 30 to 86; numbered along this chain, Q05086 (parent)
chain: KHLIERYYHQLTEGCGNEACTNEFCASCPTFLRMDNNAAAIKALELYKINAKLCDPH

Variants of: B1
Test: abundance fitness (aPCA) (normalised: wild type 0, dead -1); higher = more abundant; growth selection in yeast, the domain comes from the species named
Settings: Homo sapiens
In the case of E53D, the abundance fitness is reported as -0.374 ± 0.23. In the case of E53G, the abundance fitness is reported as -0.118 ± 0.15. For E53H, the abundance fitness was -0.426 ± 0.3. E53I gave an abundance fitness of -0.37 ± 0.36. In the case of E53M, the abundance fitness is reported as -0.19 ± 0.28. In the case of E53Q, the abundance fitness is reported as -0.118 ± 0.26. Work on E53R yielded an abundance fitness of -0.276 ± 0.21. For E53S, the abundance fitness was -0.48 ± 0.22. In the case of E53T, the abundance fitness is reported as -0.187 ± 0.31. Variant E53V has an abundance fitness of -0.309 ± 0.17. Work on E53W yielded an abundance fitness of -0.401 ± 0.32.

Variants of: B2
Test: as above
Settings: Homo sapiens
Variant AHLIERYYHQLTEGCGNEACTNEFCASCPTFLRMDNNAAAIKALELYKINAKLCDPH [K1A] has an abundance fitness of -0.757 ± 0.29. CHLIERYYHQLTEGCGNEACTNEFCASCPTFLRMDNNAAAIKALELYKINAKLCDPH [K1C] showed an abundance fitness of -0.33 ± 0.25. In the case of EHLIERYYHQLTEGCGNEACTNEFCASCPTFLRMDNNAAAIKALELYKINAKLCDPH [K1E], the abundance fitness is reported as -0.368 ± 0.31. In the case of FHLIERYYHQLTEGCGNEACTNEFCASCPTFLRMDNNAAAIKALELYKINAKLCDPH [K1F], the abundance fitness is reported as -0.53 ± 0.32. For GHLIERYYHQLTEGCGNEACTNEFCASCPTFLRMDNNAAAIKALELYKINAKLCDPH [K1G], the abundance fitness was -0.476 ± 0.27. LHLIERYYHQLTEGCGNEACTNEFCASCPTFLRMDNNAAAIKALELYKINAKLCDPH [K1L] gave an abundance fitness of -0.577 ± 0.27. In the case of MHLIERYYHQLTEGCGNEACTNEFCASCPTFLRMDNNAAAIKALELYKINAKLCDPH [K1M], the abundance fitness is reported as -0.253 ± 0.14. For NHLIERYYHQLTEGCGNEACTNEFCASCPTFLRMDNNAAAIKALELYKINAKLCDPH [K1N], the abundance fitness was -0.397 ± 0.23. With PHLIERYYHQLTEGCGNEACTNEFCASCPTFLRMDNNAAAIKALELYKINAKLCDPH [K1P] the abundance fitness was -0.719 ± 0.41. Work on RHLIERYYHQLTEGCGNEACTNEFCASCPTFLRMDNNAAAIKALELYKINAKLCDPH [K1R] yielded an abundance fitness of -0.102 ± 0.11. In the case of SHLIERYYHQLTEGCGNEACTNEFCASCPTFLRMDNNAAAIKALELYKINAKLCDPH [K1S], the abundance fitness is reported as -0.833 ± 0.28. Work on THLIERYYHQLTEGCGNEACTNEFCASCPTFLRMDNNAAAIKALELYKINAKLCDPH [K1T] yielded an abundance fitness of -0.1 ± 0.15. In the case of VHLIERYYHQLTEGCGNEACTNEFCASCPTFLRMDNNAAAIKALELYKINAKLCDPH [K1V], the abundance fitness is reported as -0.517 ± 0.23. For YHLIERYYHQLTEGCGNEACTNEFCASCPTFLRMDNNAAAIKALELYKINAKLCDPH [K1Y], the abundance fitness was -0.31 ± 0.36. Work on KALIERYYHQLTEGCGNEACTNEFCASCPTFLRMDNNAAAIKALELYKINAKLCDPH [H2A] yielded an abundance fitness of -0.041 ± 0.085. KCLIERYYHQLTEGCGNEACTNEFCASCPTFLRMDNNAAAIKALELYKINAKLCDPH [H2C] gave an abundance fitness of -0.204 ± 0.081. With KDLIERYYHQLTEGCGNEACTNEFCASCPTFLRMDNNAAAIKALELYKINAKLCDPH [H2D] the abundance fitness was 0.082 ± 0.11. KELIERYYHQLTEGCGNEACTNEFCASCPTFLRMDNNAAAIKALELYKINAKLCDPH [H2E] gave an abundance fitness of -0.055 ± 0.086. Variant KILIERYYHQLTEGCGNEACTNEFCASCPTFLRMDNNAAAIKALELYKINAKLCDPH [H2I] has an abundance fitness of 0.229 ± 0.23. KKLIERYYHQLTEGCGNEACTNEFCASCPTFLRMDNNAAAIKALELYKINAKLCDPH [H2K] showed an abundance fitness of -0.021 ± 0.12. Work on KLLIERYYHQLTEGCGNEACTNEFCASCPTFLRMDNNAAAIKALELYKINAKLCDPH [H2L] yielded an abundance fitness of -0.005 ± 0.066. With KMLIERYYHQLTEGCGNEACTNEFCASCPTFLRMDNNAAAIKALELYKINAKLCDPH [H2M] the abundance fitness was -0.03 ± 0.091. With KPLIERYYHQLTEGCGNEACTNEFCASCPTFLRMDNNAAAIKALELYKINAKLCDPH [H2P] the abundance fitness was -0.116 ± 0.077. For KQLIERYYHQLTEGCGNEACTNEFCASCPTFLRMDNNAAAIKALELYKINAKLCDPH [H2Q], the abundance fitness was 0.025 ± 0.071. With KRLIERYYHQLTEGCGNEACTNEFCASCPTFLRMDNNAAAIKALELYKINAKLCDPH [H2R] the abundance fitness was -0.025 ± 0.052. In the case of KSLIERYYHQLTEGCGNEACTNEFCASCPTFLRMDNNAAAIKALELYKINAKLCDPH [H2S], the abundance fitness is reported as 0.019 ± 0.071. Work on KTLIERYYHQLTEGCGNEACTNEFCASCPTFLRMDNNAAAIKALELYKINAKLCDPH [H2T] yielded an abundance fitness of -0.085 ± 0.099. In the case of KVLIERYYHQLTEGCGNEACTNEFCASCPTFLRMDNNAAAIKALELYKINAKLCDPH [H2V], the abundance fitness is reported as -0.044 ± 0.072. KWLIERYYHQLTEGCGNEACTNEFCASCPTFLRMDNNAAAIKALELYKINAKLCDPH [H2W] showed an abundance fitness of -0.542 ± 0.071. For KYLIERYYHQLTEGCGNEACTNEFCASCPTFLRMDNNAAAIKALELYKINAKLCDPH [H2Y], the abundance fitness was 0.051 ± 0.094. Variant KHAIERYYHQLTEGCGNEACTNEFCASCPTFLRMDNNAAAIKALELYKINAKLCDPH [L3A] has an abundance fitness of -0.334 ± 0.055. Work on KHCIERYYHQLTEGCGNEACTNEFCASCPTFLRMDNNAAAIKALELYKINAKLCDPH [L3C] yielded an abundance fitness of -0.005 ± 0.088. For KHDIERYYHQLTEGCGNEACTNEFCASCPTFLRMDNNAAAIKALELYKINAKLCDPH [L3D], the abundance fitness was -0.264 ± 0.082. KHEIERYYHQLTEGCGNEACTNEFCASCPTFLRMDNNAAAIKALELYKINAKLCDPH [L3E] showed an abundance fitness of -0.206 ± 0.081. For KHGIERYYHQLTEGCGNEACTNEFCASCPTFLRMDNNAAAIKALELYKINAKLCDPH [L3G], the abundance fitness was -0.129 ± 0.049. For KHIIERYYHQLTEGCGNEACTNEFCASCPTFLRMDNNAAAIKALELYKINAKLCDPH [L3I], the abundance fitness was -0.039 ± 0.092. In the case of KHKIERYYHQLTEGCGNEACTNEFCASCPTFLRMDNNAAAIKALELYKINAKLCDPH [L3K], the abundance fitness is reported as 0.003 ± 0.096. KHMIERYYHQLTEGCGNEACTNEFCASCPTFLRMDNNAAAIKALELYKINAKLCDPH [L3M] gave an abundance fitness of 0.048 ± 0.074. KHNIERYYHQLTEGCGNEACTNEFCASCPTFLRMDNNAAAIKALELYKINAKLCDPH [L3N] showed an abundance fitness of -0.057 ± 0.11. KHPIERYYHQLTEGCGNEACTNEFCASCPTFLRMDNNAAAIKALELYKINAKLCDPH [L3P] showed an abundance fitness of -0.204 ± 0.078. For KHQIERYYHQLTEGCGNEACTNEFCASCPTFLRMDNNAAAIKALELYKINAKLCDPH [L3Q], the abundance fitness was 0.014 ± 0.083. Variant KHRIERYYHQLTEGCGNEACTNEFCASCPTFLRMDNNAAAIKALELYKINAKLCDPH [L3R] has an abundance fitness of -0.077 ± 0.047. KHSIERYYHQLTEGCGNEACTNEFCASCPTFLRMDNNAAAIKALELYKINAKLCDPH [L3S] showed an abundance fitness of -0.004 ± 0.057. For KHVIERYYHQLTEGCGNEACTNEFCASCPTFLRMDNNAAAIKALELYKINAKLCDPH [L3V], the abundance fitness was -0.474 ± 0.058. For KHWIERYYHQLTEGCGNEACTNEFCASCPTFLRMDNNAAAIKALELYKINAKLCDPH [L3W], the abundance fitness was -0.049 ± 0.057. With KHYIERYYHQLTEGCGNEACTNEFCASCPTFLRMDNNAAAIKALELYKINAKLCDPH [L3Y] the abundance fitness was -0.021 ± 0.11. KHLAERYYHQLTEGCGNEACTNEFCASCPTFLRMDNNAAAIKALELYKINAKLCDPH [I4A] showed an abundance fitness of -0.027 ± 0.057. With KHLCERYYHQLTEGCGNEACTNEFCASCPTFLRMDNNAAAIKALELYKINAKLCDPH [I4C] the abundance fitness was -0.113 ± 0.084. In the case of KHLDERYYHQLTEGCGNEACTNEFCASCPTFLRMDNNAAAIKALELYKINAKLCDPH [I4D], the abundance fitness is reported as -0.116 ± 0.077. In the case of KHLEERYYHQLTEGCGNEACTNEFCASCPTFLRMDNNAAAIKALELYKINAKLCDPH [I4E], the abundance fitness is reported as -0.032 ± 0.063. For KHLFERYYHQLTEGCGNEACTNEFCASCPTFLRMDNNAAAIKALELYKINAKLCDPH [I4F], the abundance fitness was -0.15 ± 0.093. For KHLGERYYHQLTEGCGNEACTNEFCASCPTFLRMDNNAAAIKALELYKINAKLCDPH [I4G], the abundance fitness was -0.117 ± 0.045. KHLKERYYHQLTEGCGNEACTNEFCASCPTFLRMDNNAAAIKALELYKINAKLCDPH [I4K] gave an abundance fitness of 0.059 ± 0.084. Variant KHLLERYYHQLTEGCGNEACTNEFCASCPTFLRMDNNAAAIKALELYKINAKLCDPH [I4L] has an abundance fitness of -0.159 ± 0.061. Variant KHLMERYYHQLTEGCGNEACTNEFCASCPTFLRMDNNAAAIKALELYKINAKLCDPH [I4M] has an abundance fitness of -0.087 ± 0.079. Variant KHLNERYYHQLTEGCGNEACTNEFCASCPTFLRMDNNAAAIKALELYKINAKLCDPH [I4N] has an abundance fitness of -0.042 ± 0.076. In the case of KHLPERYYHQLTEGCGNEACTNEFCASCPTFLRMDNNAAAIKALELYKINAKLCDPH [I4P], the abundance fitness is reported as -0.093 ± 0.071. With KHLQERYYHQLTEGCGNEACTNEFCASCPTFLRMDNNAAAIKALELYKINAKLCDPH [I4Q] the abundance fitness was 0.058 ± 0.089. In the case of KHLRERYYHQLTEGCGNEACTNEFCASCPTFLRMDNNAAAIKALELYKINAKLCDPH [I4R], the abundance fitness is reported as 0.004 ± 0.051. Variant KHLSERYYHQLTEGCGNEACTNEFCASCPTFLRMDNNAAAIKALELYKINAKLCDPH [I4S] has an abundance fitness of 0.012 ± 0.059. For KHLTERYYHQLTEGCGNEACTNEFCASCPTFLRMDNNAAAIKALELYKINAKLCDPH [I4T], the abundance fitness was 0.064 ± 0.072. With KHLVERYYHQLTEGCGNEACTNEFCASCPTFLRMDNNAAAIKALELYKINAKLCDPH [I4V] the abundance fitness was -0.047 ± 0.054. For KHLWERYYHQLTEGCGNEACTNEFCASCPTFLRMDNNAAAIKALELYKINAKLCDPH [I4W], the abundance fitness was -0.208 ± 0.076. With KHLYERYYHQLTEGCGNEACTNEFCASCPTFLRMDNNAAAIKALELYKINAKLCDPH [I4Y] the abundance fitness was -0.029 ± 0.083. With KHLIARYYHQLTEGCGNEACTNEFCASCPTFLRMDNNAAAIKALELYKINAKLCDPH [E5A] the abundance fitness was -0.116 ± 0.048. KHLICRYYHQLTEGCGNEACTNEFCASCPTFLRMDNNAAAIKALELYKINAKLCDPH [E5C] gave an abundance fitness of -0.125 ± 0.049. Work on KHLIFRYYHQLTEGCGNEACTNEFCASCPTFLRMDNNAAAIKALELYKINAKLCDPH [E5F] yielded an abundance fitness of -0.112 ± 0.047. Work on KHLIGRYYHQLTEGCGNEACTNEFCASCPTFLRMDNNAAAIKALELYKINAKLCDPH [E5G] yielded an abundance fitness of -0.042 ± 0.052.
